The values that follow come from article PMC4522062, “Obatoclax is a direct and potent antagonist of membrane-restricted Mcl-1 and is synthetic lethal with treatment that induces Bim” (BMC Cancer, 2015).

Data set [1] has as its target N-Flag-human Mcl-1 C16A, C286A, Δ328-361, with a carboxyl-terminal hexa-His tag and a terminal Cys (human) (UniProt Q07820).
Data set [2] deals with the molecule itself. Briefly: cross-linking; Bak conjugated onto liposomes (2 mol% Mal-PEG3-PE, 1 mol% DOGS-NTA-Ni, 2 mg lipid/ml), 100 mM KCl, 10 mM Hepes pH 7.0, 1 h at room temperature with Bim BH3 peptide (…-OH); proteoliposomes recovered by centrifugation; 0.5 mM BS3, 1 h at room temperature; SDS-PAGE and anti-Bak immunoblot. A general note: In western blotting, separated proteins are transferred to a membrane and probed.

N-Flag-human Mcl-1 C16A, C286A, Δ328-361, with a carboxyl-terminal hexa-His tag and a terminal Cys (human), sequence (Q07820 1-327 C16A/C286A): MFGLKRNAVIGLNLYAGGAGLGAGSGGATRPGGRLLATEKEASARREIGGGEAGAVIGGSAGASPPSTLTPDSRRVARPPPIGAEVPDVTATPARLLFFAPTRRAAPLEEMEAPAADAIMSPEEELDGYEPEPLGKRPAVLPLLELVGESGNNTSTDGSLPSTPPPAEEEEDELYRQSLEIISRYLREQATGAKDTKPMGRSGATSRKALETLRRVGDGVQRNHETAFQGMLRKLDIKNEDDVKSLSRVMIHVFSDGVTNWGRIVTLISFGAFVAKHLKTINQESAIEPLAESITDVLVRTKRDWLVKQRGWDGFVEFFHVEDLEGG

Noxa BH3 peptide: in data set [1], the tBid-induced (40 nM), Bak-dependent calcein release from proteoliposomes: molar excess of Noxa BH3 peptide relative to Mcl-1 that overcame the inhibition by Mcl-1 (molar excess relative to Mcl-1) was 2.5.

B1: N-Flag-human Bak C14A, C166A, ΔC186-211, with a carboxyl-terminal hexa-His tag and a terminal Cys (domain or fragment, UniProt Q16611 1-185, looked up)
chain: MASGQGPGPPRQEAGEPALPSASEEQVAQDTEEVFRSYVFYRHQQEQEAEGVAAPADPEMVTLPLQPSSTMGQVGRQLAIIGDDINRRYDSEFQTMLQHLQPTAENAYEYFTKIATSLFESGINWGRVVALLGFGYRLALHVYQHGLTGFLGQVTRFVVDFMLHHAIARWIAQRGGWVAALNLGN
modifications: terminal Cys linked covalently to the liposome lipid Mal-PEG3-PE (where that lipid was included)
notes: Bak, human; the C-terminal TM segment (ΔC186-211) replaced by 6 His residues and a unique terminal Cys; The pET151 vector may add further N-terminal residues; also called BakΔC*; surface anchored Bak; source: E. coli BL21Star (pET151 vector), purified from the soluble extract on Ni2+-NTA resin; not shown: His6 followed by a terminal Cys, C-terminal, kept
On to B1, for which, in data set [2], the binding result is reported as “binds”.
